# Measurements as given in paper PMC3752404 (Molecular cell, 2011).
# Values joined by “and” are separate entries in the source; they are usually repeats but may differ in a detail not shown here. Identical values can stand only once.
# What was measured:
# [1] = molecular target: Swi6 (wild type, tagged: N-terminal 6xHis and C-terminal FLAG) (S. pombe) (UniProt P40381); test: equilibrium competition with a fluorescently labeled DNA
# [2] = molecular target: H3Kc9me3 12N(L15) nucleosome array; test: native gel or EMSA
# [3] = molecular target: nucleosomes and arrays
# [4] = molecular target: Swi6 chromoshadow domain (WT CSD) (S. pombe)
# [5] = molecular target: Swi6 chromoshadow domain (WT CSD) (S. pombe); test: ITC
# [6] = molecular target: H3K9 2N(L15) dinucleosome; test: native gel or EMSA
# [7] = molecular target: H3Kc9me3 2N(L15) dinucleosome; test: native gel or EMSA
# [8] = molecular target: MLA methylated (H3Kc9me3) mononucleosome on the 147 bp 601 sequence; test: native gel or EMSA
# [9] = molecular target: H3K9 2N(L47) dinucleosome; test: native gel or EMSA
# [10] = molecular target: H3Kc9me3 2N(L47) dinucleosome; test: native gel or EMSA
# [11] = molecular target: H3Kc9me3 12N(L47) nucleosome array; test: native gel or EMSA
# [12] = molecular target: MLA methylated (H3Kc9me3) mononucleosome on the 147 bp 601 sequence; test: AUC
# [13] = molecular target: H3K9me3 tail peptide; test: fluorescence polarisation
# [14] = molecular target: the molecule itself; test: SEC-MALS
# [15] = molecular target: the molecule itself; test: SEC-MALS + cross-linking
# [16] = molecular target: the molecule itself; test: cross-linking
# [17] = molecular target: the molecule itself; test: SEC
molecule,measurement,setting,value
MLA methylated (H3Kc9me3) mononucleosome on the 147 bp 601 sequence (complex),fold specificity over H3K9 nucleosomes,[1],5 fold
Swi6 V82E-Y131W (from UniProt P40381 1-328) (natural protein),fold increase of specificity compared to WT Swi6,[2],7 fold
same,fold specificity over the H3K9 12N(L15) array,[2],130 fold
"Swi6 (wild type, untagged) (from UniProt P40381 1-328) (natural protein)",fold increase of affinity on removing the tags,[3],2.5 fold
Swi6 chromoshadow domain (WT CSD) (domain or fragment),stoichiometry N,[4],2
same,Kd,[5],< 17 nM
"Swi6 (wild type, tagged: N-terminal 6xHis and C-terminal FLAG) (from UniProt P40381 1-328) (natural protein)",K1/2,[6],156 nM
same,fold specificity over the H3K9 12N(L15) array (ratio of K1/2),[2],25 fold
same,K1/2,[7],62 nM
same,fold preference over H3K9 nucleosomes (ratio of K1/2),[8],5 fold
same,K1/2,[9],32 nM
same,K1/2,[10],12 nM
same,fold specificity over the H3K9 12N(L47) array (ratio of K1/2),[11],5.4 fold
same,stoichiometry N,[12],4
Swi6 L315D (from UniProt P40381 1-328) (natural protein),fold discrimination between methylated and unmethylated arrays,[2],2 to 3 fold
same,stoichiometry N,[12],2
"Swi6 V82E (natural protein, S. pombe, UniProt P40381 1-328, looked up) MKKGGVRSYRRSSTSKRSVIDDDSEPELPSMTKEAIASHKADSGSSDNEVESDHESKSSSKKLKENAKEEEGGEEEEEDEYEVEKVLKHRMARKGGGYEYLLKWEGYDDPSDNTWSSEADCSGCKQLIEAYWNEHGGRPEPSKRKRTARPKKPEAKEPSPKSRKTDEDKHDKDSNEKIEDVNEKTIKFADKSQEEFNENGPPSGQPNGHIESDNESKSPSQKESNESEDIQIAETPSNVTPKKKPSPEVPKLPDNRELTVKQVENYDSWEDLVSSIDTIERKDDGTLEIYLTWKNGAISHHPSTITNKKCPQKMLQFYESHLTFRENE",fold increase of binding,[13],3 fold
same,binding result,[14],binds
"Swi6 (wild type, tagged: N-terminal 6xHis and C-terminal FLAG) (natural protein, S. pombe, UniProt P40381 1-328, looked up) MKKGGVRSYRRSSTSKRSVIDDDSEPELPSMTKEAIASHKADSGSSDNEVESDHESKSSSKKLKENAKEEEGGEEEEEDEYVVEKVLKHRMARKGGGYEYLLKWEGYDDPSDNTWSSEADCSGCKQLIEAYWNEHGGRPEPSKRKRTARPKKPEAKEPSPKSRKTDEDKHDKDSNEKIEDVNEKTIKFADKSQEEFNENGPPSGQPNGHIESDNESKSPSQKESNESEDIQIAETPSNVTPKKKPSPEVPKLPDNRELTVKQVENYDSWEDLVSSIDTIERKDDGTLEIYLTWKNGAISHHPSTITNKKCPQKMLQFYESHLTFRENE",stoichiometry N,[15],8
same,stoichiometry N,[16],2 and > 2
"Swi6 Y131W (natural protein, S. pombe, UniProt P40381 1-328, looked up) MKKGGVRSYRRSSTSKRSVIDDDSEPELPSMTKEAIASHKADSGSSDNEVESDHESKSSSKKLKENAKEEEGGEEEEEDEYVVEKVLKHRMARKGGGYEYLLKWEGYDDPSDNTWSSEADCSGCKQLIEAWWNEHGGRPEPSKRKRTARPKKPEAKEPSPKSRKTDEDKHDKDSNEKIEDVNEKTIKFADKSQEEFNENGPPSGQPNGHIESDNESKSPSQKESNESEDIQIAETPSNVTPKKKPSPEVPKLPDNRELTVKQVENYDSWEDLVSSIDTIERKDDGTLEIYLTWKNGAISHHPSTITNKKCPQKMLQFYESHLTFRENE",fold tetramer formation over WT,[14],~1.6 fold
"Swi6 V82E-Y131W (natural protein, S. pombe, UniProt P40381 1-328, looked up) MKKGGVRSYRRSSTSKRSVIDDDSEPELPSMTKEAIASHKADSGSSDNEVESDHESKSSSKKLKENAKEEEGGEEEEEDEYEVEKVLKHRMARKGGGYEYLLKWEGYDDPSDNTWSSEADCSGCKQLIEAWWNEHGGRPEPSKRKRTARPKKPEAKEPSPKSRKTDEDKHDKDSNEKIEDVNEKTIKFADKSQEEFNENGPPSGQPNGHIESDNESKSPSQKESNESEDIQIAETPSNVTPKKKPSPEVPKLPDNRELTVKQVENYDSWEDLVSSIDTIERKDDGTLEIYLTWKNGAISHHPSTITNKKCPQKMLQFYESHLTFRENE",fold tetramer formation over WT,[14],~3.5 fold
same,stoichiometry N,[14],4 and 8
"Swi6 chromodomain (CD, aa 81-137) (domain or fragment, S. pombe, UniProt P40381 81-137, looked up) YVVEKVLKHRMARKGGGYEYLLKWEGYDDPSDNTWSSEADCSGCKQLIEAYWNEHGG",stoichiometry N,[17],2
